{"source": "paper PMC10300302", "about": "(Cell Insight, 2023)", "binders": {"B1": {"name": "MBP-CHCHD2-His (CHCHD2-isoform2) (natural protein, human, UniProt Q9Y6H1 1-151, looked up)", "chain": "MPRGSRSRTSRMAPPASRAPQMRAAPRPAPVAQPPAAAPPSAVGSSAAAPRQPGLMAQMATTAAGVAVGSAVGHTLGHAITGGFSGGSNAEPARPDITYQEPQGTQPAQQQQPCLYEIKQFLECAQNQGDIKLCEGFNEVLKQCRLANGLA"}}, "molecular_target": "T1, GST-Sirt1 (human, UniProt Q96EB6 1-747)", "T1 sequence (looked up)": "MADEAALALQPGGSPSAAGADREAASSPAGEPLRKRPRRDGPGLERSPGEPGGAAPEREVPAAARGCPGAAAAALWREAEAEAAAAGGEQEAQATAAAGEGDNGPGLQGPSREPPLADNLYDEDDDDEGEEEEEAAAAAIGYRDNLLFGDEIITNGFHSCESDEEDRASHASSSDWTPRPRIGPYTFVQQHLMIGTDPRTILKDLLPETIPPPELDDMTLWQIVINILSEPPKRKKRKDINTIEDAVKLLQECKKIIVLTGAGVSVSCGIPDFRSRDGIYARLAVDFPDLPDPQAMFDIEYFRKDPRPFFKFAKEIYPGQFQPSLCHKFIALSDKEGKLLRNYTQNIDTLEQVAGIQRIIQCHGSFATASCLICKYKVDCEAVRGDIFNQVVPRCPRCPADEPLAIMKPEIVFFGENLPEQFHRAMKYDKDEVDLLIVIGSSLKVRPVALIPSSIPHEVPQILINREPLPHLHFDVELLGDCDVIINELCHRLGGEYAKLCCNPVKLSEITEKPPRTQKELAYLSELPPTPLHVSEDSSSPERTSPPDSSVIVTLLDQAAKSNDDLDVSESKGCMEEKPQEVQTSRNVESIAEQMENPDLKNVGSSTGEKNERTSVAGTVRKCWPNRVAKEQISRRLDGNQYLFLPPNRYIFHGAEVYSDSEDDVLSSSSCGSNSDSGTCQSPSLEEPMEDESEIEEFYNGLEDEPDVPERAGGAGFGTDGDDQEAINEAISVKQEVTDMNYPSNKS", "assay": "pull-down", "data": [{"binder": "B1", "values": [{"measurement": "binding result", "result": "binds"}]}]}
